Data as given in patent US20070031907A1, “Anaplastic lymphoma kinase assay, reagents and compositions thereof” (Istituto Nazionale Per Lo Studio E La Cura Dei Tumori, priority 2003, published 2007).

Substrate: CC[C@H](C)[C@H](NC(=O)[C@H](CC(=O)O)NC(=O)[C@H](CCCNC(=N)N)NC(=O)[C@H](C)N)C(=O)N[C@@H](Cc1ccc(O)cc1)C(=O)N[C@@H](CCCNC(=N)N)C(=O)N[C@@H](C)C(=O)N[C@@H](CO)C(=O)N[C@@H](Cc1ccccc1)C(=O)N[C@@H](Cc1ccccc1)C(=O)N[C@@H](CCCNC(=N)N)C(=O)N[C@@H](CCCCN)C(=O)NCC(=O)NCC(=O)N[C@@H](CS)C(=O)N[C@@H](C)C(=O)N[C@@H](CCSC)C(=O)N[C@@H](CC(C)C)C(=O)N1CCC[C@H]1C(=O)N[C@H](C(=O)N[C@@H](CCCCN)C(=O)O)C(C)C
Test: Peptide phosphorylation (radioactive assay) with rALK
Format: biochemical, human
Conditions: other: kinetic constants for rALK with synthetic peptides as substrate; pH 7.5; 30.0 °C
Procedure: The reactions were terminated after 10 min of incubation at 30° C. by spotting 25 μl of the mixture onto P81 phosphocellulose papers, which were processed as described elsewhere (1). Kinetic constants were determined by GraphPad Prism software fitting the data directly to the Michaelis-Menten equation using nonlinear regression.

B1: rALK (ALK catalytic domain, Leu1073 to Ala1459) (Homo sapiens) (protein)
chain: LQSPEYKLSKLRTSTIMTDYNPNYCFAGKTSSISDLKEVPRKNITLIRGLGHGAFGEVYEGQVSGMPNDPSPLQVAVKTLPEVCSEQDELDFLMEALIISKFNHQNIVRCIGVSLQSLPRFILLELMAGGDLKSFLRETRPRPSQPSSLAMLDLLHVARDIACGCQYLEENHFIHRDIAARNCLLTCPGPGRVAKIGDFGMARDIYRASYYRKGGCAMLPVKWMPPEAFMEGIFTSKTDTWSFGVLLWEIFSLGYMPYPSKSNQEVLEFVTSGGRMDPPKNCPGPVYRIMTQCWQHQPEDRPNFAIILERIEYCTQDPDVINTALPIEYGPLVEEEEKVPVRPKDPEGVPPLLVSQQAKREEERSPAAPPPLPTTSSGKAAKKPTAA
notes: A portion of ALK, stretching from amino acids Leu^1073 to Ala^1459, has been cloned into the baculovirus transfer vector; made in house; host or cells: Sf9 (Spodoptera frugiperda) insect cells, baculovirus (pBlueBacHis2C, MaxBac 2.0)
- Km: 109.4 µM
- Vmax: 0.000186 µmol/min
